The source of these data is article PMC11460708 (PLOS Pathogens, 2024).

Assay [1] deals with T1, BA.1 RBD (SARS-CoV-2 Omicron BA.1 (GISAID …, strain)).
T1 construct: not shown: His tag, C-terminal, kept
Kind of assay: SPR. The note with it: both partners purified.

In assay [2] the target is T2, XBB.1.5 RBD (SARS-CoV-2 Omicron XBB.1.5 (GISAID …, E484A (prototypic numbering) | F490S (prototypic numbering))).
T2 construct: not shown: His tag, C-terminal, kept
Kind of assay: SPR. The following applies: both partners purified.

As usually defined, the Kd is a measure of binding affinity in units of concentration. A low value points to tighter binding.

B1: Nanosota-3C (VHH)
VHH: QVQLQESGGGLVQAGGSLRLSCAASGSIFSPNTMGWFRQALGKQREGVAFISSIASTSYWLPVKGRFTITRDNTKNTVHLQMNSLIPEDTAVYYCYAVDKSQDYWGQGTQVTVSS
Consider B1, for which the values for the Kd in assay [1] and in assay [2] were 27.3 nM and 2.04 nM, respectively.
